Here are results for one substance from US20210163606A1.

In the test the target is NRP2 endogenous on U251 glioblastoma cells and on human lymphatic endothelial cells (HLEC) (human) (UniProt O60462). Briefly: cell-based or functional assay.
NRP2 endogenous on U251 glioblastoma cells and on human lymphatic endothelial cells (HLEC) (human), sequence (O60462 21-931): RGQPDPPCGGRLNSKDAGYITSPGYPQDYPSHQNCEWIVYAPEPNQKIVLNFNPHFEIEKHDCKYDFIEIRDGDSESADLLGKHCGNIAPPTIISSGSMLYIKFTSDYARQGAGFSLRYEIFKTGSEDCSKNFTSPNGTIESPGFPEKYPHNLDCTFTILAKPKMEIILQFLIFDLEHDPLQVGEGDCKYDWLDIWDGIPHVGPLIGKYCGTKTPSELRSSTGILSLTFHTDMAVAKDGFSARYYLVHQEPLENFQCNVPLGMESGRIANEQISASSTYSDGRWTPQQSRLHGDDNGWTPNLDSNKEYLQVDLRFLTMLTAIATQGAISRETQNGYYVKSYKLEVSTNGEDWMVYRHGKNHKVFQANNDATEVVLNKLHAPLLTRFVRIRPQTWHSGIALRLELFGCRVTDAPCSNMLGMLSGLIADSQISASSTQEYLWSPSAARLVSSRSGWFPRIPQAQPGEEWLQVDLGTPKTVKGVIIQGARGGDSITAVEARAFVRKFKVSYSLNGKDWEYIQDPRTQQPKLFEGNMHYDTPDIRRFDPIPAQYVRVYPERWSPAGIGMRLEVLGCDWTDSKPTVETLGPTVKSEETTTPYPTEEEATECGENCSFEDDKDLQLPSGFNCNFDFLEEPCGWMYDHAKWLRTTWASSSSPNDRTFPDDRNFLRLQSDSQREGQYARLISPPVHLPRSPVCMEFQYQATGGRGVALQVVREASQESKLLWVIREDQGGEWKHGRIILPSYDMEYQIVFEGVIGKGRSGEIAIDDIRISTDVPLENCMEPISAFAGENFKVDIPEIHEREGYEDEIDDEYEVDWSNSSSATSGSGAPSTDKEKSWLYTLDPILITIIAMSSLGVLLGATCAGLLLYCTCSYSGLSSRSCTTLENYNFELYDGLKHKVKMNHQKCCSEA

In turn, “Semaphorin 3F (SEMA3F) (from UniProt Q13275 19-779) (ligand)” came in with a decrease in intracellular phospho-Akt levels in U251 cells of 50%.
